Assay results: article PMC5123727 (International Journal of Nanomedicine, 2016)
Entries after “also recorded” stand apart in the source; their conditions may differ. Peptide text beside a SMILES is read from it. * marks the point of attachment. X1 = CCc1c2c(nc3ccc(OC(=O)[C@H]4CC[C@H](CNC(=O)[C@H]5CC[C@H](CN6C(=O)CC(*)C6=O)CC5)CC4)cc13)-c1cc3c(c(=O)n1C2)COC(=O)[C@]3(O)CC

Columns and labels:
[1] = system: advanced or metastatic solid tumors; test: Tumor response; assay type: in vivo, human
[2] = Phase I plasma pharmacokinetics of DTS-108, SN-38 and SN-38G; assay type: in vivo; conditions: human, iv
human basophils = conditions: in vitro, preclinical, ref not given; cited from earlier work
Solubility in water = assay type: physicochemical
[3] = Phase I dose escalation: toxicity; assay type: in vivo, human; conditions: for Other toxicities: Type of toxicity and grade: UR unrelated, R probably related
cardiac repolarization = test: Cardiovascular effects: QRS and QTc intervals; assay type: in vivo, human
dog basophils = conditions: in vitro, preclinical, ref not given; cited from earlier work
[4] = dogs, 4.5–53 mg free base/kg; preclinical, ref not given; cited from earlier work
[5] = dose 313 mg/m^2, Hyperbilirubinemia (UR)
[6] = drug-related, repeated dosing, all doses, n=42

SMILES: CCc1c2c(nc3ccc(OC(=O)[C@H]4CC[C@H](CNC(=O)[C@H]5CC[C@H](CN6C(=O)CC(SC[C@H](N)C(=O)N[C@H](C(=O)N[C@@H](CCCCN)C(=O)N[C@@H](CCCNC(=N)N)C(=O)NCC(=O)N[C@@H](CC(C)C)C(=O)N[C@@H](CCCCN)C(=O)N[C@@H](CC(C)C)C(=O)N[C@@H](CCCNC(=N)N)C(=O)N[C@@H](Cc7c[nH]cn7)C(=O)N[C@H](C(=O)N[C@@H](CCCNC(=N)N)C(=O)N7CCC[C@H]7C(=O)N[C@@H](CCCNC(=N)N)C(=O)N[C@H](C(=O)N[C@H](C(=O)N[C@@H](CCCNC(=N)N)C(=O)N[C@@H](CCSC)C(=O)N[C@@H](CC(=O)O)C(=O)N[C@H](C(=O)O)C(C)C)[C@@H](C)O)C(C)C)C(C)C)C(C)C)C6=O)CC5)CC4)cc13)-c1cc3c(c(=O)n1C2)COC(=O)[C@]3(O)CC (stereo partly drawn) [DTS-108] (H-C(X1)VKRGLKLRHVRPRVTRMDV-OH)
- objective response ([1]; 42 patients): No patient
- median progression-free survival ([1]; 95% CI 3–17 months): 11 months
- patients with stable disease status maintained for six cycles or longer ([1]; in vivo): seven
- Tmax ([2]; 3 mg/m2): 0.25 h
- Tmax ([2]; 6 mg/m2): 1 h
- Tmax ([2]; 12 mg/m2): 0.97 h
- Tmax ([2]; 24 mg/m2): 0.98 h
- Tmax ([2]; 32 mg/m2): 1.11 h
- Tmax ([2]; 42 mg/m2): 1.32 h
- Tmax ([2]; 56 mg/m2): 0.96 h
- Tmax ([2]; 75 mg/m2): 1.44 h
- Tmax ([2]; 100 mg/m2): 1.31 h
- Tmax ([2]; 133 mg/m2): 0.99 h
- Tmax ([2]; 177 mg/m2): 1.45 h
- Tmax ([2]; 235 mg/m2): 1.27 h
- AUC(0-inf) ([2]; 313 mg/m2): 439 µg·h/mL
- Tmax ([2]; 313 mg/m2): 1.68 h
- Tmax ([2]; 416 mg/m2): 2.47 h
- histamine release (human basophils): histamine release induced
- solubility in water (Solubility in water): highly soluble
- patients with Grade 3 neutropenia ([3]; 235 mg/m^2): one of four
- patients with Grade 3 neutropenia ([3]; 313 mg/m^2): four of six
- patients with no dose-limiting neutropenia ([3]; 313 mg/m^2): five of the six
- patients with Grade 3 neutropenia ([3]; 416 mg/m^2): four of six
- patients with dose reductions to 313 mg/m^2 ([3]; 416 mg/m^2): three of six
- patients with grade 4 neutropenia ([3]; 416 mg/m^2): three out of six
- patients with infusion reactions ([3]; Cohort 11, 177 mg/m^2): all three
- nephrotoxicity ([3]; all doses): no evidence of nephrotoxicity
- dose-limiting toxicity (DLT) ([3]; cycle 1): Neutropenia
- Other toxicities Grades 1–2, patients ([3]; dose 32 mg/m^2, Hyperbilirubinemia (UR)): 1
- Other toxicities Grades 1–2, patients ([3]; dose 32 mg/m^2, Respiratory and thoracic disorder (UR)): 1
- Other toxicities: Type of toxicity and grade ([3]; dose 32 mg/m^2): Respiratory and thoracic disorder (UR); also recorded: Hyperbilirubinemia (UR)
- Other toxicities Grades 1–2, patients ([3]; dose 42 mg/m^2, Retroperitoneal hematoma (UR)): 1
- Other toxicities: Type of toxicity and grade ([3]; dose 42 mg/m^2): Retroperitoneal hematoma (UR)
- Other toxicities Grades 1–2, patients ([3]; dose 56 mg/m^2, Acute pancreatitis (UR)): 1
- Other toxicities Grades 1–2, patients ([3]; dose 56 mg/m^2, Hyperbilirubinemia (UR)): 1
- Other toxicities: Type of toxicity and grade ([3]; dose 56 mg/m^2): Acute pancreatitis (UR); also recorded: Hyperbilirubinemia (UR)
- Neutropenia All grades, patients ([3]; dose 75 mg/m^2, 3 patients): 1
- Neutropenia All grades, patients ([3]; dose 100 mg/m^2, 3 patients): 1
- Other toxicities Grades 1–2, patients ([3]; dose 100 mg/m^2, Complete left lung atelectasy (UR)): 1
- Other toxicities: Type of toxicity and grade ([3]; dose 100 mg/m^2): Complete left lung atelectasy (UR)
- Neutropenia All grades, patients ([3]; dose 133 mg/m^2, 4 patients): 3
- Other toxicities Grades 1–2, patients ([3]; dose 133 mg/m^2, Hyperbilirubinemia (UR)): 1
- Other toxicities: Type of toxicity and grade ([3]; dose 133 mg/m^2): Hyperbilirubinemia (UR)
- Neutropenia All grades, patients ([3]; dose 177 mg/m^2, 3 patients): 1
- Other toxicities: Type of toxicity and grade ([3]; dose 177 mg/m^2): Vomiting (R), diarrhea (R), and nausea (R)
- Other toxicities Grades 1–2, patients ([3]; dose 177 mg/m^2, Vomiting (R), diarrhea (R), and nausea (R)): 1
- Neutropenia All grades, patients ([3]; dose 236 mg/m^2, 4 patients): 1
- Neutropenia Grades 3–4, patients ([3]; dose 236 mg/m^2, 4 patients): 1
- Other toxicities Grades 1–2, patients ([3]; dose 236 mg/m^2, Edema of lower limb (UR)): 1
- Other toxicities: Type of toxicity and grade ([3]; dose 236 mg/m^2): Edema of lower limb (UR); also recorded: Vomiting (R) and diarrhea (R)
- Other toxicities Grades 1–2, patients ([3]; dose 236 mg/m^2, Vomiting (R)): 1
- Other toxicities Grades 3–4, patients ([3]; dose 236 mg/m^2, Vomiting (R) and diarrhea (R)): 1
- Neutropenia All grades, patients ([3]; dose 313 mg/m^2, 6 patients): 6
- Neutropenia Grades 3–4, patients ([3]; dose 313 mg/m^2, 6 patients): 4
- Other toxicities Grades 3–4, patients ([3]; dose 313 mg/m^2, Diarrhea (R)): 1
- Other toxicities Grades 1–2, patients [3, 5]: 1
- Other toxicities Grades 3–4, patients [3, 5]: 1
- Other toxicities: Type of toxicity and grade ([3]; dose 313 mg/m^2): Diarrhea (R); also recorded: Hyperbilirubinemia (UR)
- Neutropenia All grades, patients ([3]; dose 416 mg/m^2, 6 patients): 6
- Neutropenia Grades 3–4, patients ([3]; dose 416 mg/m^2, 6 patients): 4
- Other toxicities: Type of toxicity and grade ([3]; dose 416 mg/m^2): Vomiting (UR), pyrexia (UR), and chills (R)
- Other toxicities Grades 1–2, patients ([3]; dose 416 mg/m^2, Vomiting (UR), pyrexia (UR), and chills (R)): 1
- Abdominal pain: Number of patients with ≥1 adverse event [3, 6]: 8
- Abdominal pain: Total (%) [3, 6]: 19.0%
- Alanine aminotransferase elevation increased: Number of patients with ≥1 adverse event [3, 6]: 5
- Alanine aminotransferase elevation increased: Total (%) [3, 6]: 11.9%
- Alopecia: Number of patients with ≥1 adverse event [3, 6]: 8
- Alopecia: Total (%) [3, 6]: 19.0%
- Anemia: Number of patients with ≥1 adverse event [3, 6]: 13
- Anemia: Total (%) [3, 6]: 31.0%
- Anorexia: Number of patients with ≥1 adverse event [3, 6]: 9
- Anorexia: Total (%) [3, 6]: 21.4%
- Ascites: Number of patients with ≥1 adverse event [3, 6]: 5
- Ascites: Total (%) [3, 6]: 11.9%
- Asthenia: Number of patients with ≥1 adverse event [3, 6]: 18
- Asthenia: Total (%) [3, 6]: 42.9%
- Constipation: Number of patients with ≥1 adverse event [3, 6]: 6
- Constipation: Total (%) [3, 6]: 14.3%
- Cough: Number of patients with ≥1 adverse event [3, 6]: 5
- Cough: Total (%) [3, 6]: 11.9%
- Diarrhea: Number of patients with ≥1 adverse event [3, 6]: 17
- Diarrhea: Total (%) [3, 6]: 40.5%
- Dyspnea: Number of patients with ≥1 adverse event [3, 6]: 9
- Hypoalbuminemia: Number of patients with ≥1 adverse event [3, 6]: 5
- Hypoalbuminemia: Total (%) [3, 6]: 11.9%
- Leukopenia: Number of patients with ≥1 adverse event [3, 6]: 6
- Leukopenia: Total (%) [3, 6]: 14.3%
- Lymphopenia: Number of patients with ≥1 adverse event [3, 6]: 7
- Lymphopenia: Total (%) [3, 6]: 16.7%
- Nausea: Number of patients with ≥1 adverse event [3, 6]: 18
- Nausea: Total (%) [3, 6]: 42.9%
- Neutropenia: Number of patients with ≥1 adverse event [3, 6]: 8
- Neutropenia: Total (%) [3, 6]: 19.0%
- Pyrexia: Number of patients with ≥1 adverse event [3, 6]: 7
- Pyrexia: Total (%) [3, 6]: 16.7%
- Rash: Number of patients with ≥1 adverse event [3, 6]: 9
- Rash: Total (%) [3, 6]: 21.4%
- Vomiting: Number of patients with ≥1 adverse event [3, 6]: 14
- Vomiting: Total (%) [3, 6]: 33.3%
- Weight decreased >10%: Number of patients with ≥1 adverse event [3, 6]: 5
- Weight decreased >10%: Total (%) [3, 6]: 11.9%
- recommended Phase II dose (RP2D) ([3]; iv 2-hour infusion every 2 weeks): 313 mg/m^2
- maximum tolerated dose (MTD) ([3]; iv every 2 weeks, patients with advanced/metastatic solid tumors): 313 mg/m^2
- changes in QRS morphology or interval measurements (cardiac repolarization; all doses): no clinically significant drug-related changes
- instances of postdose QTc >450 ms (cardiac repolarization; all doses): four
- instances of postdose QTc >500 ms (cardiac repolarization; all doses): no instances
- QTc at the end of dosing (cardiac repolarization; one patient, 416 mg/m^2, cycle 3, predose QTc 391 ms): 484 ms
- histamine release (dog basophils): histamine release induced
- resolution of immediate effects resembling an infusion reaction [4]: resolved spontaneously within a few hours
- severity of immediate effects resembling an infusion reaction [4]: moderate severity
